Results taken from publication PMC9054930 (RSC Advances, 2020).

Target: alpha fetal protein (AFP) (Homo sapiens, UniProt P02771)
Assay: ELISA

Chain of alpha fetal protein (AFP) (P02771 19-609): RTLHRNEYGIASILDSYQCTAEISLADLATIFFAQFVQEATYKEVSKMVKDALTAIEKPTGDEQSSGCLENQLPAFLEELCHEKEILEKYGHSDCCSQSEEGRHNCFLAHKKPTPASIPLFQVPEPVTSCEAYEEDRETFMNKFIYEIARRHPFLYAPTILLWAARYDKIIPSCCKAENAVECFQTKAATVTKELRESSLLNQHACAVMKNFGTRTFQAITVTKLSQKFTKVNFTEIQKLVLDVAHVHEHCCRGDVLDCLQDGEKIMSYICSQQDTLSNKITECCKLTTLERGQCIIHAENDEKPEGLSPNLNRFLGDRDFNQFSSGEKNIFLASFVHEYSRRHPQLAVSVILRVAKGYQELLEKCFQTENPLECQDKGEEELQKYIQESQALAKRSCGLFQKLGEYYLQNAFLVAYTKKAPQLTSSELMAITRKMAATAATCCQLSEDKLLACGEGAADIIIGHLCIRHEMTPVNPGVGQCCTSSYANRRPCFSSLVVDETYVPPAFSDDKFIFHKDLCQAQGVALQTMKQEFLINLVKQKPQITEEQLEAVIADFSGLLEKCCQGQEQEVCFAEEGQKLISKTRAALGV

Binder	binding result
anti-AFP nanobody A1, phage-displayed (VHH) VHH: QVQLVESGGGLVQSGGSLRLSCAASMRGFRIVAGGWYRQSPGKQRELVADINYQDDTNYGDFVKGRFTISRDSAKNTLYLQMNSLKPEDTAVYYCSALSVIGNEFWGQGTQVTVSS	binds
anti-AFP nanobody A2, phage-displayed (VHH) VHH: QVQLVESGGGLVQAGGSLGLSCAASGLGFSIVAGGWFRQAPGKERELVAAIGTGTGDINYGDSVKGRFTISSDSAKNTVYLQMNSLKPEDTAVYFCATTERYYTGSYDSRARPQSYGYWGQGTQVTVSS	binds
